According to patent US20220154156A1, “PROTEINS AND METHODS FOR DISRUPTING BACTERIAL COMMUNICATION” (REGENTS OF THE UNIVERSITY OF MINNESOTA, priority 2019, published 2022):
“And” between values parts separate entries of the source, which are not always exact repeats. Equal values may be shown once. Numbered stars: 1 amine (or outer) side, 2 acyl side, 3 side chain; on linkers, the order of the positions; unused ones are H or OH. Bridge positions count the residues as written; N and C are the ends. Square brackets hold non-standard residues; d marks the D form. Peptide text beside a SMILES is read from it. X1 = CC(C)CCCCCCCCC[C@H](CC(=O)[*:1])O[*:2]

Tests used:
[1] = molecular target: GcL, quorum quenching lactonase from Geobacillus caldoxylosilyticus (Parageobacillus caldoxylosilyticus) (Geobacillus caldoxylosilyticus (Parageobacillus caldoxylosilyticus)); assay: X-ray crystal structure, homodimer interface analysis
[2] = tested on: corrosion tubercles on steel coupons; assay: Biocorrosion of coated steel coupons in Duluth-Superior Harbor water, 8 weeks; parameters: concentration or dose not given beside the values; details: silica gel coating, two months in DSH water
Procedure: The steel coupons were washed with soap water, lightly brushed for a few seconds with a test tube brush, and then rinsed with Milli-Q water to remove any loose material. Each coupon was designated with a unique number and weighed before being randomly assigned to a specific experimental treatment.
Each compound or enzyme was added to 5 ml of the silica gel matrix to develop different coating treatments. These coatings were applied by dipping coupons into the appropriate gel mixture for 1 minute, and then the coating on the coupon surface was air-dried at room temperature for 2 hours.
Six treatments and three controls were investigated for corrosion rate and changes in bacterial communities (Table 10). Each treatment or control contained three replicate steel coupons. After the triplicate steel coupons were coated with each biochemical, enzyme or bacterial treatment, they were incubated in experimental microcosms constructed from 10-gallon glass aquaria (Aqueon Glass, 50.8 cm×25.4 cm×30.5 cm) (FIG. 24). Each microcosm was equipped with an aquarium pump (Aquarium Systems Mini-Jet 404) to constantly circulate the water (˜2 L hr−1), and covered with a piece of acrylic with one corner cut out to allow gas exchange. The coupons were hold with plastic holders and immersed in water taken from the DSH for 8 weeks and then recovered for analyses.
The coupons in each treatment was photographed by the end of the experiment. Biocorrosion was evaluated by the number and coverage of corrosion tubercles, and also by imaging of coupon surfaces with an environmental scanning electron microscope (ESEM). The coupon images were captured with DSLR camera immediately after being removed from the harbor water, and then tubercle numbers and total area in digital images were measured using the analyze menu within ImageJ software (NIH, Bethesda, Md., USA). Surface roughness measurements were also made after the exposed coupons were cleaned with ASTM G1-90 iron and steel chemical cleaning procedure (2 min in 37% HCl, 50 g/L SnCl2). A Hitachi TM-3030 ESEM was used to view details of the cleaned coupon surface and the 3D-View software was used to generate surface roughness measurements (SRa). Statistics analysis (T-tests) of the tubercle numbers, coverage and surface roughness were performed using Microsoft Excel software.

[3] = tested on: bacterial communities at the surface of the steel; assay: 16S rDNA analysis of microbial community on steel coupons; details: treated coupons
Procedure: After photo imaging, on each of the coupon surface, all material including biofilm and tubercles were scraped into a sterile 50 ml polypropylene centrifuge tube (Corning, N.Y., USA) using a steel scraper. A 0.5 g subsample of the surface material from each coupon sample was used for DNA extraction using PowerSoil DNA kit (MoBio Laboratories). The extracted DNA was used to sequence the V4 region of 16S rDNA gene and describe changes in the composition of bacterial communities. DNA samples were quantified with a NanoDrop 2000 Spectrophotometer (Thermo Scientific, Waltham, Mass. USA) and then sent overnight to the University of Minnesota Genomics Center for 16S rDNA sequencing. 30 samples were multiplexed into a single run of Illumina MiSeq paired-end 300 cycles, which was expected to generate a total of 15 million sequences of the 254 bp portions of the 16S rDNA V4 region.
Sequence data were processed and analyzed using the MOTHUR program. To ensure high quality data for analysis, sequence reads containing ambiguous bases, homopolymers >7 bp, more than one mismatch in the primer sequence, or an average per base quality score below 25 were removed. Sequences that only appear once in the total set were assumed to be a result of sequencing error and removed from the analysis. Chimeric sequences were also removed using the UCHIME algorithm within the MOTHUR program. […]

[4] = tested on: algae and Zebra mussels; assay: Antifouling activity of acrylic-lactonase coating, Lake Minnetonka, 1 month; details: 200 μg/mL, polycarbonate, controls BSA, copper oxide
Procedure: Various polycarbonate samples were submerged in Lake Minnetonka (Tonka bay marina) for 1 month. Coatings were prepared with 200 μg/mL of control ingredients (BSA or copper oxide (CuO)) and of lactonases (SsoPox and GcL). Large zebra mussels are circled.
We note that microscopy imaging highlights large differences in the surface colonization between the different treatments.

[5] = tested on: Pseudomonas aeruginosa; assay: Caenorhabditis elegans infection models (slow-killing, paralysis); type: in vivo; details: dose-dependent
Source text: FIG. 34A-34C show protection of Caenorhabditis elegans from infection by Pseudomonas aeruginosa by lactonases. Slow-killing, gut infection assay performed with P. aeruginosa. Lactonases SsoPox (A) and GcL (B) are sprayed in the petri dish plate, and final concentrations are given. (C) Paralysis assay by P. aeruginosa, and treatment with SsoPox. […] OP50 Escherichia coli strain serves as a non-virulent control.
The protection by lactonases is dose-dependent (FIG. 34) in both models.

[6] = at 75° C.; cited from earlier work
[7] = Lactonase assay (pH indicator, cresol purple), kinetic measurements; type: biochemical
Procedure: Kinetic measurements. The determination of GcL catalytic efficiency was performed by using a microplate reader (Synergy HTX, BioTek, USA) and the software Gen5.1 over a range of substrates (FIG. 2). The reactions were operate in a 96-well plate at a path length of 5.8 mm for a 200 μl reaction volume at room temperature. The catalytic parameters were achieved by fitting the data to Michaelis-Menten equation with the Graph-Pad Prism 5 software. When, Vmax was not reached, the catalytic efficiency was determined by fitting the linear part of Michaelis-Menten plot to a linear regression using Graph-Pad Prism 5.
Lactonase assay. The AHL lactonolysis consisting in the opening of the lactone ring generates a proton, and leads to an acidification of the media. This property allowed the characterization of the lactonases by using a pH indicator assay. To perform the experiment 5 μl of enzyme were added to a solution containing 10 μl of substrates at various concentrations and 185 μl of lactonase buffer (2.5 mM Bicine pH 8.3, 150 mM NaCl, 0.2 mM CoCl2, 0.2 mM cresol purple, 0.5% DMSO). This assay was performed at 25° C. and the time course of the lactones hydrolysis was recorded at 577 nm. The characterization of the enzyme was proceeding against a large panel of AHLs: C4-AHL, C6-AHL, C8-AHL, C10-AHL, 3-oxo-C8-AHL and against γ-Butyrolactone, γ-Heptalactone, γ-Nonalactone, γ-Decanolactone, δ-Valerolactone, δ-Octanolactone, δ-Nonalactone, δ-Decalactone, ε-Caprolactone, ε-Decalactone, Whiskey lactone.

[8] = tested on: soil bacterial community; assay: Different lactonases on soil microbial community (Example 8); type: cell-based; details: 7 days, vs inactive SsoPox 5A8
Procedure: Principal component analysis (PCA) based on deep bacterial 16S rDNA sequences (Illumina V4 region).
The same experiments as described above were performed on the same soil microbial community but with two different lactonases, GcL, and Ssopox W263I. These enzymes differ primarily by their substrate specificity. […] This is important because different bacteria use different AHLs to communicate. Indeed, The structure of AHLs vary a lot with respect to the length of N-acyl chains (from C4 to C18), the hydroxyl or oxo group of the acyl chain and the saturated or unsaturated state of the carbon chain^1. The hydrophobicity of AHLs relates to their passive diffusion through membranes. […] In fact, regulatory circuits may be interconnected, like in P. aeruginosa^6, and allow for compensatory responses: if the LasI/LasR system is inactivated, the RhlI/RhlR system can still control LasI/LasR-spectific functions^7.

Molecule: GcL, quorum quenching lactonase from Geobacillus caldoxylosilyticus (Parageobacillus caldoxylosilyticus) (from UniProt A3FJ64 1-250) (enzyme)
- interface surface between dimer [1]: 1180 Å^2

Molecule: CC(C)CCCCCCCCC[C@@H]1CC(=O)N[C@@H](CCC(=O)O)C(=O)N[C@@H](CC(C)C)C(=O)N[C@H](CC(C)C)C(=O)N[C@@H](C(C)C)C(=O)N[C@@H](CC(=O)O)C(=O)N[C@H](CC(C)C)C(=O)N[C@@H](CC(C)C)C(=O)O1 [surfactin] (EL[dL]VD[dL]L; linker N-C via X1)
- reduction of the coverage of corrosion tubercles [2]: 37%
- reduction of the number (formation) of corrosion tubercles [2]: 31%
- abundance of Burkholderiales, Pseudomonadales and Rhodospirillales [3]: significantly reduced

B1: SsoPox: lactonase isolated from Sulfolobus solfataricus, SEQ ID NO:5 (protein, listed as Sulfolobus solfataricus)
chain: GMVRISIAGGNEIDPGSMGLTLFHEHLRLITEVVRWNWPHLYNEDEELKRAIDAVNAAKKYGVKTIIDLTVAGIGCDVRFNEKVAKATGVNIIMGTGFYTYTEIPFYFKNRGIDSLVDAFVHDITIGIQGTNTRAAFVKAVIDSSGLTKDVEMAIRAAAKAHIKTDVPIITHSFVGNKSSLDLIRIFKEEGVDLARTVIGHVGDTDDISFIEQILREGAFIGLDRFGLDIYLPLDKRVKTAIELIKRGWIDQLLLSHDYCPTIDWYPPEVVRSTVPDWTMTLIFEKVIPRMRSEGITEEQINRVLIDNPRRLFTGR
- inhibition of biofouling [4]: more efficient at inhibiting biofouling than controls
- survival of Caenorhabditis elegans [5]: increase survival

B2: GcL: lactonase isolated from the thermophilic bacteria Geobacillus caldoxylosilyticus, SEQ ID NO:1 (protein, listed as Parageobacillus caldoxylosilyticus)
chain: MTVKKLYFIPAGRCMLDHSSVNSALTPGKLLNLPVWCYLLETEEGPILVDTGMPESAVNNEGLFNGTFVEGQILPKMTEEDRIVNILKRVGYEPDDLLYIISSHLHFDHAGGNGAFTNTPIIVQRTEYEAALHREEYMKECILPHLNYKIIEGDYEVVPGVQLLYTPGHSPGHQSLFIETEQSGSVLLTIDASYTKENFEDEVPFAGFDPELALSSIKRLKEVVKKEKPIIFFGHDIEQEKSCRVFPEYI
- inhibition of biofouling [4]: more efficient at inhibiting biofouling than controls
- half-life [6]: 2.542 ± 0.167 h
- substrate specificity ([7]; AHL acyl chain length): proficiently degrades lactones ranging from C4 to C12 AHLs
- catalytic efficiencies ([7]; AHLs with both short and long acyl chains): 10^4 to 10^6 M^−1·s^−1
- Km ([7]; range over tested substrates (with the exception of C4-AHL)): 0.5 to 20 µM and 0.67 to 21.1 µM
- survival of Caenorhabditis elegans [5]: increase survival
- planktonic microbial community composition [8]: induce differential planktonic microbial community biases
